Data published in patent US20060094079A1.

Biological target: Human placental collagen, type III (Sigma) (human) (UniProt P02461)
Assay: cell-based or functional assay

Sequence of UniProt P02461 (P02461 154-1221): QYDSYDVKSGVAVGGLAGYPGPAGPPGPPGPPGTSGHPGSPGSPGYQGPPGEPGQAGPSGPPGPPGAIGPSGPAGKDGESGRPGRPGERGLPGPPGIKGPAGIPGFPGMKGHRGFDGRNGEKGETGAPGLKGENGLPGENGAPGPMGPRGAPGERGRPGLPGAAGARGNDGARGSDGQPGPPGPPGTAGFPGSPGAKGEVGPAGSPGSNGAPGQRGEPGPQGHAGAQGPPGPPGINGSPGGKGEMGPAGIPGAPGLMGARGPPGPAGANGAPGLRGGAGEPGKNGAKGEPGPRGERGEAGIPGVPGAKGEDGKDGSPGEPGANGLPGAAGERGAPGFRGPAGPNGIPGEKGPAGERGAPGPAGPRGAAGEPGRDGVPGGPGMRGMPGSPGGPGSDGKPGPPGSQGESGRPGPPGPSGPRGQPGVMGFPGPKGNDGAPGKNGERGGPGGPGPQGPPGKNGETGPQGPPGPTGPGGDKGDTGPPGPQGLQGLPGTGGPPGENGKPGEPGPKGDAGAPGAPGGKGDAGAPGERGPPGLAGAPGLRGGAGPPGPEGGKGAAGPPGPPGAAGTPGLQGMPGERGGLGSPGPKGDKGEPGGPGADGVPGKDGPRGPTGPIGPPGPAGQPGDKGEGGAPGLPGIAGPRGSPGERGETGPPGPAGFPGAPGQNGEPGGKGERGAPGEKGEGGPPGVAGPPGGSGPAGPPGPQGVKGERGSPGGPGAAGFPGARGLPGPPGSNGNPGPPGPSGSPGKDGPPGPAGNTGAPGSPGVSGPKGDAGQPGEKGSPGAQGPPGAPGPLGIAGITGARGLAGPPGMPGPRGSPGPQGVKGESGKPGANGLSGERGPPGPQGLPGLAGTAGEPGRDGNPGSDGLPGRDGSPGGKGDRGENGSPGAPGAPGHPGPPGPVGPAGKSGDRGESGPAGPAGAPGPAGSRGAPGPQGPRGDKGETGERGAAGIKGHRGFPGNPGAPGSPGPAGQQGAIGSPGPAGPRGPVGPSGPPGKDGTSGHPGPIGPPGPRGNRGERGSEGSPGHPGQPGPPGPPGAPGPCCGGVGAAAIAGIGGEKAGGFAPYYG

platelet binding on collagen type III coated surface pretreated with Saratin, whole human blood under flow (shear rate 1300 s-1): 80%
reduction in platelet deposition on collagen type III coated coverslips at a shear rate of 1300 s-1: 81%
Substance: Saratin (protein isolated from the saliva of the leech Hirudo medicinalis; 103 amino acids)
